Target: endogenous GSK3β (UniProt P49841)
Assay: anti-FoxO3a IP, GSK3β blot
Details: reference: HA-FoxO3a-WT; sites T32,S253,S315

binding against the reference: stronger
Substance: FoxO3a (RLuc- or HA-tagged constructs, WT and TM) (from UniProt O43524) HA-FoxO3a-TM (triple mutant)
